# According to US20050025777A1, “Particle-mediated delivery of antigens” (priority 1994, published 2005):
# Where “and” joins values, the source holds several entries; their conditions need not be identical. Identical values can stand only once.
# Tests used:
# [1] = Induction of cytotoxic cellular response by HIV gp 120 peptide; conditions: in vivo
# [2] = target: Human Alpha 1 Anti-Trypsin Protein (Homo sapiens, UniProt P01009); test: Antibody responses to human alpha 1 anti-trypsin protein after immunization; type: in vivo, mice
# [3] = Accell (no adjuvant), prime + 1 boost
# [4] = Accell (no adjuvant), prime only
# Human Alpha 1 Anti-Trypsin Protein, sequence (P01009 25-418): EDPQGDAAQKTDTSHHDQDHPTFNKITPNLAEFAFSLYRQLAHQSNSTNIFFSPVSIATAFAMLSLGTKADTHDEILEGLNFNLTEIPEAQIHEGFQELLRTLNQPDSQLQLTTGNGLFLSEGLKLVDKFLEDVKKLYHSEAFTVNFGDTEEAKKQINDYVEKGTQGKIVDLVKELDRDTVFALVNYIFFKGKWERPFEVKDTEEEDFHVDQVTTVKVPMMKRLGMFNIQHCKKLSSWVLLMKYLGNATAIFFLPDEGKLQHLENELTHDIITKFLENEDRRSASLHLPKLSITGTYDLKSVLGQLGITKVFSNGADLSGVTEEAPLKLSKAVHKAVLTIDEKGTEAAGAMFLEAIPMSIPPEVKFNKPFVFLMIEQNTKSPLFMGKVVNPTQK
Compound,regimen required to induce a cytotoxic cellular response [1],"number with detectable antibody/total number tested [2, 3]","reciprocal antibody titers [2, 3]","number with detectable antibody/total number tested [2, 4]","reciprocal antibody titers [2, 4]","number with detectable antibody/total number tested ([2]; injection with Freund's adjuvant, prime + 1 boost)","number with detectable antibody/total number tested ([2]; injection with Freund's adjuvant, prime only)"
CC[C@H](C)[C@H](NC(=O)[C@@H](NC(=O)[C@@H](NC(=O)[C@H](Cc1ccccc1)NC(=O)[C@H](C)NC(=O)[C@H](CCCNC(=N)N)NC(=O)CNC(=O)[C@@H]1CCCN1C(=O)CNC(=O)[C@H](CCCNC(=N)N)NC(=O)[C@H](CCC(N)=O)NC(=O)[C@@H](NC(=O)[C@@H](N)CCCNC(=N)N)[C@@H](C)CC)C(C)C)[C@@H](C)O)C(=O)NCC(=O)N[C@@H](CCCCN)C(=O)O [HIV gp 120],"a single dose, i.e. the prime, is all that is required",,,,,,
Human Alpha 1 Anti-Trypsin Protein: Human Alpha 1 Anti-Trypsin Protein used as immunogen,,4/4,9500 and 6500 and 5500,4/4,350 and 375 and 210 and 250,4/4,4/4
